Reference: paper PMC4184034

Tested on: dCas9 (SpyCas9 D10A/H840A) (Streptococcus pyogenes)
Assay: DNA binding assay
Settings: not given in the material (Methods are in the supplement, not held)

## crRNA:tracrRNA + 55-bp target dsDNA
  Kd: 4 nM
